Publication PMC6367345 (Scientific Reports, 2019)
Changes are numbered by the printed parent chain. Blank lines part the entries; values can stand above or below the molecule they belong to.

What was measured:
MEDI-579 Fab (human) = assay: SPR; BIAcore T100; antibody (MEDI-579 Fab) amine-coupled to a CM3 sensorchip at about 500 RU; serial dilution of PAI-1 between 6.25 nM and 25 pM in HBS-EP+ passed over the surface
[1] = target: human plasminogen activator inhibitor-1 (PAI-1), active (native) form (Homo sapiens, UniProt P05121, glycosylated (SPR preparation))
human plasminogen activator inhibitor-1 (PAI-1), active (native) form (Homo sapiens, UniProt P05121, glycosylated (SPR preparation)), sequence (P05121 24-402): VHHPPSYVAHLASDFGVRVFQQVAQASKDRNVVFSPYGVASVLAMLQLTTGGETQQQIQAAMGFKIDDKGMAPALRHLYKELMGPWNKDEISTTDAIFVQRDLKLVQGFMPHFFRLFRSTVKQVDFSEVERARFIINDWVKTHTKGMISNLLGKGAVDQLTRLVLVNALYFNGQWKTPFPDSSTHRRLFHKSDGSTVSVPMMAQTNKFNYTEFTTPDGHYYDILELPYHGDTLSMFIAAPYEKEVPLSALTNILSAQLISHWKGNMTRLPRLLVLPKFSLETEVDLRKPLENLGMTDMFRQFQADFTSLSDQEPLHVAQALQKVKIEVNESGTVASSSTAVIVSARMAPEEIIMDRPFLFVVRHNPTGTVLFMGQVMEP

rat PAI-1 = target: T1, rat PAI-1 (Rattus norvegicus, UniProt P20961); assay: SPR; BIAcore T100; antibody (MEDI-579 Fab) amine-coupled to a CM3 sensorchip at about 500 RU; serial dilution of PAI-1 between 6.25 nM and 25 pM in HBS-EP+ passed over the surface; details: both partners purified
T1 construct: source: bought: Molecular Innovations (SPR)
T1 sequence (P20961 24-402): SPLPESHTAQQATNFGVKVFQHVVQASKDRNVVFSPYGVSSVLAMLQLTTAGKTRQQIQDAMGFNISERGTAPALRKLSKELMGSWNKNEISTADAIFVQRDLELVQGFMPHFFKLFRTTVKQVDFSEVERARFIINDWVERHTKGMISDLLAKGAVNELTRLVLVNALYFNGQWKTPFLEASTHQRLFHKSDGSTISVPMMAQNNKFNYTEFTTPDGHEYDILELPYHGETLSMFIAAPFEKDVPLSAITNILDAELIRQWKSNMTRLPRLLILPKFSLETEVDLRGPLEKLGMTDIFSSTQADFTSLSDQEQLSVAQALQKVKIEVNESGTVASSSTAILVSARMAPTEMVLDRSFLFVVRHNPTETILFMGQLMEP

MEDI-579 Fab (human), sequence (light, as listed by the source): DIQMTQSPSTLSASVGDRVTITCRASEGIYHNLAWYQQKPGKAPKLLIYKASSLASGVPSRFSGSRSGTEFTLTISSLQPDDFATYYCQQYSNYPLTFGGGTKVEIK

Kd (MEDI-579 Fab (human)): 6 pM
koff (MEDI-579 Fab (human)): 4.18e-05 s⁻¹
kon (MEDI-579 Fab (human)): 7.02e+06 M⁻¹ s⁻¹
Molecule: human plasminogen activator inhibitor-1 (PAI-1), active (native) form (from UniProt P05121 24-402) (natural protein)

binding result [1]: binds
B1: Parent (antibody, V domains shown)
VH: QVQLQQSGAEVKKPGSSVKVSCKASGGTFSSYAISWVRQAPGQGLEWMGGIIPIFDTANYAQKFQGRVTITADESTSTAYMELSSLRSEDTAVYYCAREKRQWLEGHFDYWGRGTLVTVSS
VL: DIQMTQSPSFLSASIGDRVTITCRASEGIYHWLAWYQQKPGKAPKLLIYKASSLASGAPSRFSGSGSGTDFTLTISSLQPDDFATYYCQQYSNYPLTFGGGTKLEIK

Kd (rat PAI-1): 0.105 nM
koff (rat PAI-1): 0.000797 s⁻¹
kon (rat PAI-1): 7.64e+06 M⁻¹ s⁻¹
B2: MEDI-579 Fab (Fab, V domains shown)
VH: B1 VH with Q5V, I54T, D56G, K100R
VL: B1 VL with F10T, I15V, W32N, A58V, G66R, D70E, L104V
notes: heavy chain of the Fab; closest germline IGHV1-69*12; light chain of the Fab; closest germline IGKV1-5*03; The Fab for crystallisation was made by papain digestion of the IgG1
